# “Also recorded” adds a separate entry of the source.
# Tests used:
# PSA mRNA expression = PSA mRNA expression in LNCaP cells, Northern blot; assay type: cell-based
# AR transactivation [1] = assay: AR transactivation with Smad3/Smad4, CAT reporters in PC3-AR2, PC-3 and LNCaP cells; assay type: cell-based, human
# Description: 32. […] LNCaP cell were transfected with Smad3 or Smad4 expression vector instead of PC-3(AR)2 cells in experiments otherwise identical with those in A (B), PC-3(AR)2 cells stably transfected with AR were over-expressed with the indicated amounts of Smad3 or Smad4 or SRC-1. 3 μg of MMTV-CAT was used as a reporter plasmid in all experiments. All values represent the averages±SD of four independent experiments. […] PSA expression level was determined by Northern blotting. The probe was obtained from exon 1 of the PSA gene and labeled with [α-^32P] dCTP. A β-actin probe was used as a control for equivalent mRNA loading. (C, Table 1) The RNA samples from (A) were reverse transcribed to cDNAs and all of the samples were subjected to real-time CR using an ABI Prism 7700 Sequence Detection System (Perkin-Elmer Applied bio systems). PCR was performed using the SYBR Green PCR Core Reagents kit (Perkin-Elmer Applied Bio systems). PSA and β-actin forward, reverse primers concentrations were 2.5 μM. To reduce variability between replicates, PCR premixes which contained all reagents except for total RNA were prepared and aliquoted into 1.5 ml microfuge tubes. Specific PCR amplification products were detected by the fluorescent double-stranded DNA-binding dye SYBR Green core reagent kit. Experiments were performed with triplicates for each data point.
# (§1) 37. […] (A) PC3-AR2, SW480·C7, and PC-3 cells were transiently co-transfected with either MMTV-CAT, PSA-CAT, 5XARE-CAT, or (TAT)2-CAT (3 μg), in the presence of AR, Smad3, Smad4 or Smad3/Smad4 as indicated. Each CAT activity is presented relative to the transactivation observed in the absence of Smad3. All values represent the mean±SD of three independent experiments.
# 333. Human prostate cancer DU145 cells and PC-3 cells were maintained in Dulbecco's Minimum Essential Medium containing penicillin (25 U/ml), streptomycin (25 μg/ml), and 5% fetal calf serum. Transfections were performed using the calcium phosphate precipitation method and cells were harvested after 24 h for the chloramphenicol acetyltransferase (CAT) assay, as described previously (Kang, et al. (1999) J. Biol. Chem. 274, 8570-8576). The CAT activity was visualized and quantitated by STORM 840 (Molecular Dynamics). At least three independent experiments were carried out in each case. The SW480·C7 cells and PC-3(AR)2 cells are the gifts from Dr. Eric J. Stanbridge and Dr. T. J. Brown
# AR transactivation [2] = conditions: PC-3 and CV1 cells; Hayes et al.; cited from earlier work
# [3] = tested on: wtAR, mtARt877a, PR, VDR, ER transactivation; assay: Steroid receptor transactivation with Smad3 in DU145 cells (wtAR, mtARt877a, PR, VDR, ER); assay type: cell-based, human
# AR transactivation [4] = assay: AR transactivation reporter assays in SW480.7 / SW480·C7 cells; assay type: cell-based; conditions: for Effect on ARE reporter activity: SW480·C7 cells
# Description: as §1
molecule,measurement,setting,value
Smad3: a downstream mediator of the TGF-β signaling pathway (protein) MSSILPFTPPIVKRLLGWKKGEQNGQEEKWCEKAVKSLVKKLKKTGQLDELEKAITTQNVNTKCITIPRSLDGRLQVSHRKGLPHVIYCRLWRWPDLHSHHELRAMELCEFAFNMKKDEVCVNPYHYQRVETPVLPPVLVPRHTEIPAEFPPLDDYSHSIPENTNFPAGIEPQSNIPETPPPGYLSEDGETSDHQMNHSMDAGSPNLSPNPMSPAHNNLDLQPVTYCEPAFWCSISYYELNQRVGETFHASQPSMTVDGFTDPSNSERFCLGLLSNVNRNAAVELTRRHIGRGVRLYYIGGEVFAECLSDSAIFVQSPNCNQRYGWHPATVCKIPPGCNLKIFNNQEFAALLAQSVNQGFEAVYQLTRMCTIRMSFVKGWGAEYRRQTVTSTPCWIELHLNGPLQWLDKVLTQMGSPSIRCSSVS,Effect on PSA expression,PSA mRNA expression; absence of androgen,failed to induce PSA expression
same,Effect on androgen-induced PSA mRNA expression,PSA mRNA expression; presence of androgen,further enhance PSA expression; also recorded: further enhances DHT-induced PSA mRNA expression
same,Effect on androgen-activated AR transactivation,"AR transactivation [1]; PC3-AR2, MMTV-CAT, 10^−8 M DHT",further enhanced
same,"Effect on ARE reporters (MMTV, PSA, 5X-ARE, TAT2-ARE)",AR transactivation [1]; PC-3 cells,enhance all these reporters
same,Effect on AR transactivation,AR transactivation [2],suppress AR transactivation
same,Enhancement of AR transactivation compared to ARA70,[3],relatively stronger enhancement effect
same,Enhancement of wtAR transactivation,[3]; 10 nM DHT,3-4 fold
same,Effect on transactivation of steroid receptors,[3]; 10^−8 M cognate ligand,"significantly enhance the transactivation of AR, the progesterone receptor, and VDR"
same,Effect on ARE reporter activity,AR transactivation [4]; MMTV-ARE reporter,only enhance MMTV-ARE reporter activity
same,Effect on ARE reporter activity,"AR transactivation [4]; PSA-ARE, 5X-ARE and TAT2-ARE reporters",some slight repression
same,Effect on ligand-dependent transactivation of AR,"AR transactivation [4]; SW480.7 cells, MMTV-CAT",increased the ligand-dependent transactivation of AR

# Source: US20040235717A1, “Suppression of androgen receptor transactivation through new pathways to ar and ar coactivators and repressors” (priority 2001, published 2004)
